Results on 1 molecule are retold here after US7667100B2, “Nucleic acid compositions conferring herbicide resistance” (Dow AgroSciences LLC, priority 2002, dated 2010).

Series [1] deals with Nicotiana benthamiana. Kind of series: Cross-resistance testing against six auxin compounds (greenhouse). Type of series: in vivo. From the text: Six compounds, representing five classes of auxin chemistry, were selected for testing the extent of auxinic tolerance of five hit sequences (129965 (SEQ ID NO:10), 130213 (SEQ ID NO: 14), 130294 (SEQ ID NO:360), 130994 (SEQ ID NO:361), and 129870 (SEQ ID NO:359)). The compounds included the following: • 1) quinclorac (BASF Corp., Research Triangle, N.C.) • 2) (2,4-dichlorophenoxy) acetic acid (Dow AgroSciences, Indianapolis, Ind.) • 3) dicamba (Monsanto, St. Louis, Mo.) • 4) benazolin (AgrEvo USA Company, Wilmington, Del.) • 5) picloram (Dow AgroSciences, Indianapolis, Ind.) • 6) 4-amino-3,6-dichloropyridine-2-carboxylic acid (Dow AgroSciences, Indianapolis, Ind.) Compound #6 served as a positive control, as these five sequences were identified for their herbicide tolerant function using this auxin (see Example 9). Compound #1 represents the quinoline carboxylic acid chemical family, #2 is in the phenoxy carboxylic acid class, #3 is benzoic acid chemistry, #4 is unique to any currently defined class, and #5 is in the same family as the positive control, pyridine carboxylic acids.
The protocol was essentially the same as that described in Example 9 for greenhouse evaluations. However, an individual experiment consisted of 200 test plants plus 35 GFP and 35 bar negative control plants inoculated per clone. […] Two doses per auxin were tested, with as many as 12 well-infected test plants and 2 of each of the negative controls per dose.
The six auxin solutions were prepared by dissolving solid compound in General Purpose Solvent (GPS: 97%DMSO: 3% acetone) to achieve the following spray rates (g ae/ha) when using the spray applicator and parameters outlined in Example 9: Compound #1) 200; 2) 42; 3) 64; 4) 200; 5) 10; 6) 10. From each of these solutions, a portion was diluted with an equal volume of GPS, resulting in 1× (“high dose”) and ½× (“low dose”) concentrations for spraying. Before spray application, each auxin solution was mixed with an equal volume of diluent containing surfactants for effective penetration. The diluent was prepared as follows: 420 mL GPS, 460 mL DI water, 120 mL isopropyl alcohol, 10.167 mL Agri-Dex (Helena Chemical Co., Memphis, Tenn.), and 0.167 mL Triton X-155 (Sigma Chemical Co., St. Louis, Mo.). In addition to the 200 and 100 g ae/ha rates tested for Compound #4 (benazolin), a concentration of 250 g ae/ha was also formulated as described above and tested.
Plants were sprayed and evaluated as described in Example 9. FIG. 7 summarizes the sequences tested and the highest dose of the compounds against which tolerance was observed. […] Results are reported in FIG. 7 for each of the trials with each construct.
The positive control (Compound #6) was formulated differently in this set of evaluations from that described in Example 9, for consistency in the solvent/surfactant background from which to compare the activity of the individual sequences against each auxin. Thus, the spray rate used for evaluation was lower than previous experiments, 5 vs. 13 g ae/ha. The need to lower the dose with this formulation to prevent total chlorosis and/or necrosis was likely due to the addition of DMSO, Agri-Dex, and Triton X-155 which were not used in Example 9.

Series [2] has as its system Nicotiana benthamiana. Kind of series: Evaluation of auxin tolerance in greenhouse plants inoculated with clone transcript and sprayed with herbicide. It is filed as in vivo. The following applies: greenhouse; 30% or more of test population tolerant by 14 dat. Here is the method: All primary hit sequences were evaluated for tolerance in larger plants, maintained under greenhouse conditions as described below.
Plant Growth and Maintenance. Nb seeds were sown in 6.5 cm pots filled with Redi-earth medium (The Scotts Company, Marysville, Ohio) pre-wetted by injection of Hoagland's fertilizer solution [all from the Scotts Company: 147 kg Peters Excel 15-15-15 Cal-Mag, 68 kg Peters Excel 15-0-0 Cal-Lite (15% Ca), and 45 kg Peters Excel 10-0-0 MagNitrate (10% Mg) in hot tap water to 596 L total volume] into irrigation water at a ratio of 200:1, using an injection system (H. E. Anderson, Muskogee Okla,). Seededpots were placed in the greenhouse for 1 day, transferred to a 27° C. germination chamber (Carolina Greenhouses, Kinston, N.C.) for 2 days, and then returned to the greenhouse. Shade curtains (33% transmittance) were used in the greenhouse to reduce solar intensity. To ensure 16 hour day length and supplement solar radiation on overcast days, artificial lighting consisting of a 1:1 mixture of metal halide and high pressure Sylvania sodium lamps was used, delivering approximately 220 μmol/m^2/s. Evaporative cooling and steam heat were used to maintain a daytime set point of 27° C. and a nighttime temperature of 22° C. At approximately 7 days post sowing (dps), seedlings were thinned to one seedling per pot and at 17 to 21 dps, the pots were spaced farther apart to accommodate plant growth. Plants were watered with Hoagland's solution as required. Following inoculation, waste irrigation water was collected and treated with 0.5% sodium hypochlorite for 10 minutes to neutralize any viral contamination before discharging into the municipal sewer.
Plant Inoculation. For each clone, 50 test plants as well as 10 GFP and bar (Thompson et al., EMBO J. 6:2519 [19870]) negative control plants were inoculated as follows: 2.0 mL of inoculum per clone were prepared by combining equal volumes of NCAP transcript and FES buffer [0.1 M glycine, 0.06 M K2HPO4, 1% sodium pyrophosphate, 1% diatomaceous earth (Sigma Chemical Company, St. Louis, Mo.), and either 1% silicon carbide (Aldrich Chemical Company, Milwaukee, Wis.), or 1% Bentonite (Sigma Chemical Company, St. Louis, Mo.)]. The inoculum was applied to each plant at 17 days post sowing by pipetting onto the upper surface of leaves 3 and 4 (˜20 μL per leaf). The inoculum was then spread across each leaf surface using a 3″ cotton tipped applicator (Calapro Swab, Fisher Scientific, Pittsburgh, Pa.) and a gloved finger to support the leaf. Following inoculation the plants were misted with deionized water.
Infection Scoring. At 8 days post inoculation (dpi), the plants were visually examined and a numerical score was assigned to each plant to indicate the extent of viral infection symptoms: 0=no infection, 1=possible infection, 2=infection symptoms limited to leaves <50-75% fully expanded, 3=typical systemic infection, 4=atypically severe infection, often accompanied by moderate to severe wilting and/or necrosis. Plants receiving an infection rating of 0, 1, or 4 were discarded.
Herbicide spraying. At 9 dpi, the well infected plants (infection score of 3, sometimes 2) were divided into 3 treatment groups. Group 1, to be sprayed with solvent only, contained 4 plants per test clone (2 plants per negative control) and Groups 2 and 3, to be treated with 13 or 40 g ae/ha, respectively, each consisted of 12 test plants per clone and 2 plants per negative control. […]

B1: 129870: Poppy cDNA clone; auxin tolerance hit sequence (nucleic acid)
DNA: TTAATTAAGTCGACGAATTCAAATTAGGTCTAAAGATGGCGTCTTTAGCTCAACAATTCTCAGGATTAAGATGCCCACCACTTTCTTCTTCTCATCTAACAAAACCCTTTTCTTCAAAACCCCAGAAAACCACCTTTTCACCTATAGTTTCAGCAGCTGTCATTTCTAATGCACAAACTAAAGAAAGAAGTAGACTTAAAGAAATCTTCGAAGATGCTTATGAAAGATGTAGAACTACTCCAATGCAAGGTGTTGGTTTTACTGTTGATGATTTTCATGCTGCTCTTGAAAAGTATGATTACAATTCTGAGATTGGTACCAGGGTTAAAGGAACTGTGTTCTGTACAGACAACAACGGAGCATTAGTTGACATCACGGCGAAATCTTCAGCCTATTTACCAATCCAAGAGGCATGTATTCACAAAATAAAGCATGTAGAAGAAGCAGGAATAGTTGCAGGCCTACGTGAAGAGTTTGTGATTATTGGAGAGAACCAAGCTGATGATAGCTTGATCTTGAGTTTGCGTTCAATCCAATTTGACCTCGCATGGGAACGGTGTAGACAACTTCAGGCAGAGGATGTCGTCCTCAAGGGTAAGGTTGTTGGTGGAAACAAAGGCGGTGTGGTGGCAATTGTCGAAGGCCTTCGTGGTTTTATTCCATTCTCACAAATATCTTCAAAATCAACCGCGGAAGATCTCATTGATAAGGAGCTTCCTCTGAAATTTGTGGAAGTTGATGAGGAGCAGTCTAGACTTGTCCTCAGTAATCGCAAGGCCATGGCAGACAGCCAGGCACAGCTTGGTATTGGATCAGTTGTCACTGGAACAGTACAGAGTCTTAAGCCATATGGCGCTTTCATCGACATTGGTGGAATCAATGGTCTTCTTCATGTTAGTCAAATTAGTCATGATCGTGTCTCGGATATTGCAACAGTTCTTCAACCCGGCGACACTCTAAAGGTGATGATATTGAGCCACGACCGTGAGAGAGGCCGAGTCAGTCTATCCACCAAAAAGCTAGAGCCTACTCCAGGAGATATGATCCGTAACCCCAAGCTTGTTTTCGAGAAGGCTGAAGAAATGGCTCAGACATTCAGGCAGAGAATAGCTCAAGCAGAAGCTATGGCCCGTGCGGACATGCTGAGATTCCAACCCGAGAGTGGATTGACTCTAAGCTCAGACGGCATCTTAGGTCCCCTGACGCCAGACTTGCCTGCTGAAGGTCTAGATTTGAGCGACATTCCTGCAGCTGATGATGCATAGAAACCAATAAATATGAATTAAATCTGTCTTGACGTTTCTTCTCATCACCATTTTTAGGCTATGTAAGATGGGTCTATAGGTTGTTCAAAGTGTTGACTTGTGTATTTATCTTGATAGTTCAAAGTGTACTTCTTTAAGCGATAATCATTGAAAAGAAAAAATGGAGAAGGTAAAAGATAAAAATATCCAAAAAAAAAAAAAAAAAAAAAAAA
modifications: Poppy
As for B1, in the series with Nicotiana benthamiana [1] (10 g ae/ha and 1/2x), the “tolerance to picloram (Compound #5)” value is “demonstrated tolerance to each of the three compounds using the 35% injury threshold”. Moreover, the “tolerance to positive control 4-amino-3,6-dichloropyridine-2-carboxylic acid (Compound #6)” value in the series on Nicotiana benthamiana [1] (10 g ae/ha and 1/2x (5 g ae/ha)) is “tolerance consistently occurred at the lower threshold (25% injury or less)”. Moreover, the “tolerance to dicamba (Compound #3)” value in the series with Nicotiana benthamiana [1] (64 g ae/ha and 1/2x) was “demonstrated tolerance to each of the three compounds using the 35% injury threshold”. In addition, the “tolerance to quinclorac (Compound #1)” value with Nicotiana benthamiana [1] (200 g ae/ha and 1/2x) is “demonstrated tolerance to each of the three compounds using the 35% injury threshold”. In the series with Nicotiana benthamiana [1] (two trials, two doses per auxin, thresholds 25% or 35% injury or less), the “extent of cross-resistance to the six auxin compounds” value is reported as “tolerance was observed against four compounds”. In the series with Nicotiana benthamiana [2], the “reproducibility of auxin tolerance from Trial #1 to Trial #2” value was “reproducible auxin tolerance”.
